Test results from doi:10.1101/836718.

Tests used:
[1] = molecular target: recombinant His-tagged HIV-1 integrase P15 (A128T/K173Q) (IN^P15) (HIV-1 (NL4-3)); assay: SEC
[2] = molecular target: recombinant His-tagged HIV-1 integrase P20 (A128T/K173Q/N254K) (IN^P20) (HIV-1 (NL4-3)); assay: SEC
[3] = molecular target: recombinant His-tagged HIV-1 integrase P26 (A128T/H171Q/K173Q/N254K) (IN^P26) (HIV-1 (NL4-3)); assay: cross-linking
[4] = molecular target: recombinant His-tagged HIV-1 integrase P26 (A128T/H171Q/K173Q/N254K) (IN^P26) (HIV-1 (NL4-3)); assay: SEC
[5] = molecular target: recombinant His-tagged HIV-1 integrase R269A/K273A (IN^RAKA) (HIV-1 (NL4-3)); assay: cross-linking

With “recombinant His-tagged HIV-1 integrase P15 (A128T/K173Q) (IN^P15) (enzyme)” the stoichiometry N [1] was 2.
In the case of “recombinant His-tagged HIV-1 integrase P20 (A128T/K173Q/N254K) (IN^P20) (enzyme)”, the stoichiometry N [2] is reported as 2.
Work on “recombinant His-tagged HIV-1 integrase P26 (A128T/H171Q/K173Q/N254K) (IN^P26) (enzyme)” yielded a multimer ratio, dimers [3] of 19.6%, a multimer ratio, tetramers [3] of 3.3% and a stoichiometry N [3] of 4. The stoichiometry N [4] was 2.
“recombinant His-tagged HIV-1 integrase R269A/K273A (IN^RAKA) (enzyme)” gave a stoichiometry N [5] of 4.
